Measured values from the Human Domainome abundance scans (Beltran et al. 2025).

B1: DnaJ homolog subfamily C member 5, residues 16 to 77; numbered along this chain, Q9H3Z4 (parent)
chain: LYHVLGLDKNATSDDIKKSYRKLALKYHPDKNPDNPEAADKFKEINNAHAILTDATKRNIYD

Variants of: B1
Test: abundance fitness (aPCA) (normalised: wild type 0, dead -1); higher = more abundant; growth selection in yeast, the domain comes from the species named
Details: Homo sapiens

Abundance fitness of substitutions, site by site:
D15: L -0.412, G -0.433, F -0.689, W -0.271, H -0.679, P -0.643, C -0.24, A -0.042, M -0.359, T -0.367, E -0.067, S -0.382, I -0.328, R -0.693, K -0.17, Y -0.888
K9: Y -0.163, M -0.458, Q -0.25, S -0.125, N -0.394, H -0.341, C -0.246, G -0.215, V -0.004, R -0.116, P -0.252, I -0.099, E 0.007, W -0.499, F -0.281, A 0.077, T -0.27, D -0.05
T12: L -0.813, M -0.678, C -0.235, K -0.437, H -0.349, N -0.426, D -0.467, Y -1.07, I -0.412, A -0.878, G -0.472, P -1.01, S -0.232, E -0.573, W -1.31, F -0.857
N10: T -0.073, R -0.464, V -0.711, P -0.818, S -0.142, Q -0.266, E -0.343, Y -0.796, I -0.741, A -0.293, W -0.4, D -0.343, L -0.342, F -0.371, H -0.493
S13: I 0.046, L -0.04, V -0.162, W -0.336, T 0.055, M 0.04, C -0.215, G -0.376, E -0.023, P -0.272, N 0.002, R -0.354, Y -0.188, F -0.267, D 0.068, A -0.116, H -0.496
K17: H 0.057, D -0.477, A 0.048, P -1.31, Q -0.063, G -0.251, V 0.039, F -0.52, I -0.107, W -0.204, E 0.084, T -0.07, L -0.18, C -0.361, M -0.09, N -0.248, S -0.153, R -0.032
I16: F -0.064, L -0.285, H -0.723, S -0.435, P -0.587, W -0.998, Y -0.649, K -0.45, C -0.44, E -0.305, D -0.567, V -0.238, R -0.586, G -0.442, N -0.615, M -0.65, A -0.32, Q -0.437
K18: S 0.04, C -0.101, D -0.062, R -0.13, E 0.11, Q -0.104, P -0.623, I -0.005, A 0.079, W -0.226, V -0.098, T -0.025, N -0.34, F 0.117, L -0.157, M 0.06
A11: T -0.553, P -0.536, M -1.6, E -1.13, S -0.578, W -1.24, I -1.49, Q -1.25, V -0.661, C -0.182, K -0.569, G -0.536, L -0.941, N -0.125, R -0.846
D14: K -0.209, V -0.341, N -0.151, E -0.048, P -0.348, W -0.357, A -0.166, Q -0.394, Y -0.431, C -0.549, S -0.242, G -0.401, T -0.346, I -0.105, F -0.848, L -0.238, R -0.359, H -0.394
